This test deals with immobilized CD52 (human) (UniProt P31358). Briefly: Fab fragments assayed for binding to immobilized CD52.
Substance “humanized Campath-1 Fab with (VL) CDR3 replaced by that of REI” showed a fold reduction of binding against the humanized Campath-1 Fab of 3 fold. The result for “humanized Campath-1 Fab with (VH) CDR1 replaced by that of NEW” reads 3 fold; that for “humanized Campath-1 Fab with (VH) CDR3 replaced by that of NEW”, 8 fold.
